Measured values from US20250215083A1 (JIANGSU HENGRUI PHARMACEUTICALS, published 2025).
Where a chain is given by its changes, count along the chain named. Names and notes keep the numbering of the source. Where two headings read alike, the source gives them in different places. Blank lines part the entries; values can stand above or below the binder they belong to.

Experiments:
[1] = biological target: T1, cynomolgus monkey GPRC5D (cynomolgus monkey); experiment: FACS, CHOK1-cynoGPRC5D cells
T1 construct: whole, on cells; also called CynoGPRC5D; cynoGPRC5D
Experimental: (§1) To test the capacity of the GPRC5D/CD3 bispecific antibodies of the present disclosure to bind to GPRC5D, a flow cytometry assay was used in this test example to measure the capacity of the GPRC5D/CD3 bispecific antibodies to bind to the human multiple myeloma cell line MM.1R (ATCC® CRL-2975), which expresses GPRC5D, and to a stably transfected cell strain CHOK1-cynoGPRC5D, which expresses cynomolgus monkey GPRC5D. The specific procedure was as follows: The cells described above were cultured in complete culture medium containing 10% FBS, incubated in a 37° C., 5% CO₂ incubator for 2 days, and added to a cell plate at 1×10⁵ cells/well. The plate was centrifuged at 300 g for 5 min and washed once with 1% BSA. The antibodies were serially diluted to 8 concentrations and added to the cell plate at 100 μL/well. The plate was incubated at 4° C. for 1 h and washed once with 1% BSA. […] The plate was washed three times with 1% BSA, PBS was added at 100 μL/well, and plate reading was performed.

[2] = biological target: T2, human GPRC5D (human, UniProt Q9NZD1 1-345); experiment: FACS, MM.1R cells
T2 construct: whole, on cells; also called membrane surface GPRC5D
Experimental: as §1

[3] = biological target: T1, cynomolgus monkey GPRC5D; experiment: FACS, CHOK1-cynoGPRC5D cells; remark: listed apart in the source
Experimental: as §1

[4] = biological target: T2, human GPRC5D; experiment: FACS, MM.1R cells; remark: listed apart in the source
Experimental: as §1

[5] = biological target: T3, hPDL1 (human, UniProt Q9NZQ7 19-238); experiment: ELISA per WO2021139758 Test Example 4
T3 construct: purchased from Sino biology

[6] = biological target: T4, hCTLA4 (human, UniProt P16410 36-161); experiment: ELISA per WO2021139758 Test Example 4
T4 construct: purchased from Sino biology
T4 sequence (P16410 36-161 limits assumed): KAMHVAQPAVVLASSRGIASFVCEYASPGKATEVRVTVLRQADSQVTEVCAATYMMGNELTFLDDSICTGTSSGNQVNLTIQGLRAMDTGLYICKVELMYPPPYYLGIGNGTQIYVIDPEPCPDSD

T2 sequence (Q9NZD1 whole entry): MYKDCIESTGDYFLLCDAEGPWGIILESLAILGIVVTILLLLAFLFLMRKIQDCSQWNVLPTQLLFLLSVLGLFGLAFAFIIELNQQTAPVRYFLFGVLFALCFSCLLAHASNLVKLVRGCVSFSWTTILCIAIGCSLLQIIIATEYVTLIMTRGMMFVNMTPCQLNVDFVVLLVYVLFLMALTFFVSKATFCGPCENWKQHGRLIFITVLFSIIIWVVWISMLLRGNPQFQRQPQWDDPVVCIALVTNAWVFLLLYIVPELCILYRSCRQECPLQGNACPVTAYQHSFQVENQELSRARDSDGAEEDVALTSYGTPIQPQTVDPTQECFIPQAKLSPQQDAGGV
T3 sequence (Q9NZQ7 19-238 limits assumed): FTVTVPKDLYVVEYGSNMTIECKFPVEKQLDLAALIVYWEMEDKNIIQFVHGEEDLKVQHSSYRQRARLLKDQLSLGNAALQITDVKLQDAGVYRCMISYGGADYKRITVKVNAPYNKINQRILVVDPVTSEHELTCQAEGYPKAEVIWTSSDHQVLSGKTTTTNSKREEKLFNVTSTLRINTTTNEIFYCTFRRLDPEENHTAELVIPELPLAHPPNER

B1: F11-13 (bispecific antibody)
heavy: not shown
light: DIQMTQSPSSVSASVGDRVTITCKASQNVGSNVAWYQQKPGKAPKALIYSASYRYSGVPSRFSGSGSGTDFTLTISSLQPEDFATYYCHQYNSYPPTFGQGTKLEIKRTVAAPSVFIFPPSDEQLKSGTASVVCLLNNFYPREAKVQWKVDNALQSGNSQESVTEQDSKDSTYSLSSTLTLSKADYEKHKVYACEVTHQGLSSPVTKSFNRGEC
notes: formula 11
EC50 [1]: 2210 pM
Max [1]: 28100
EC50 [2]: 1050 pM
Max [2]: 718
EC50 [3]: 2210 pM
EC50 [4]: 1050 pM

B2: F11-15 (bispecific antibody)
heavy: not shown
light: B1 light with A43S, T85E
notes: formula 11
EC50 [1]: 1450 pM
Max [1]: 24000
EC50 [2]: 890 pM
Max [2]: 693
EC50 [3]: 1450 pM
EC50 [4]: 890 pM

B3: F11-16 (bispecific antibody)
heavy: not shown
light: B1 light with A43S, T85E
notes: formula 11
EC50 [1]: 2950 pM
Max [1]: 25200
EC50 [2]: 940 pM
Max [2]: 678
EC50 [3]: 2950 pM
EC50 [4]: 940 pM

B4: F11-14 (bispecific antibody)
heavy: not shown
light: B1 light
notes: formula 11
EC50 [1]: 1860 pM
Max [1]: 25800
EC50 [2]: 880 pM
Max [2]: 633
EC50 [3]: 1860 pM
EC50 [4]: 880 pM

B5: F11-12 (bispecific antibody)
heavy: not shown
light: DVVLTQSPLSLPVTLGQPASISCKSSQSLLHSTGKTYLNWLLQRPGQSPRRLIYLVSKLDSGVPDRFSGSGSGTDFTLKISRVEAEDVGVYYCAQGTHFPRTFGGGTKVEIKRTVAAPSVFIFPPSDEQLKSGTASVVCLLNNFYPREAKVQWKVDNALQSGNSQESVTEQDSKDSTYSLSSTLTLSKADYEKHKVYACEVTHQGLSSPVTKSFNRGEC
notes: formula 11
EC50 [2]: 1930 pM
Max [2]: 1600
EC50 [3]: 1600 pM
EC50 [4]: 1930 pM

B6: F4-4 (bispecific antibody)
heavy 1: not shown
light 1: not shown
heavy 2: EVQLVESGGGLVQPGGSLRLSCAASGFTFTDYYLSWVKQAPGKGLEWVAFIRNRAKGYTTEYSASVKGRFTISRDNSKNSLYLQMNSLRAEDTAVYYCARMGGKGWHFDVWGQGTTVTVSSASTKGPSVFPLAPSSKSTSGGTAALGCLVKDYFPEPVTVSWNSGALTSGVHTFPAVLQSSGLYSLSSVVTVPSSSLGTQTYICNVNHKPSNTKVDKKVEPKSCDKTHTCPPCPAPEAAGGPSVFLFPPKPKDTLMISRTPEVTCVVVDVSHEDPEVKFNWYVDGVEVHNAKTKPREEQYNSTYRVVSVLTVLHQDWLNGKEYKCKVSNKALPAPIEKTISKAKGQPREPQVCTLPPSRDELTKNQVSLSCAVKGFYPSDIAVEWESNGQPENNYKTTPPVLDSDGSFFLVSKLTVDKSRWQQGNVFSCSVMHEALHNHYTQKSLSLSPGK
light 2: DVVMTQSPLSLPVTPGEPASISCRSSQSIVHSNRNTYLEWYLQKPGQSPKLLIYKVSNRFSGVPDRFFGSGSGTDFTLKINRVEAEDVGVYYCFQGSHVPFTFGGGTKVEIKRTVAAPSVFIFPPSDEQLKSGTASVVCLLNNFYPREAKVQWKVDNALQSGNSQESVTEQDSKDSTYSLSSTLTLSKADYEKHKVYACEVTHQGLSSPVTKSFNRGEC
notes: formula 4
EC50 [1]: 3150 pM
Max [1]: 74900
EC50 [2]: 12100 pM
Max [2]: 13600
EC50 [3]: 3150 pM
EC50 [4]: 12100 pM

B7: F4-5 (bispecific antibody)
heavy 1: not shown
light 1: not shown
heavy 2: B6 heavy 2 with S77A, K78Q
light 2: B6 light 2
notes: formula 4
EC50 [1]: 3160 pM
Max [1]: 71300
EC50 [2]: 12800 pM
Max [2]: 13400
EC50 [3]: 3160 pM
EC50 [4]: 12800 pM

B8: F11-2 (bispecific antibody)
heavy: not shown
light: DVVMTQTPLSLSVTPGQPASISCRSSQSLVHSSGNTYLYWYLQKPGQSPKLLIYKVSNRFSGVPDRFSGSGSGTDFTLKISRVEAEDVGVYYCSQSTHVPPLTFGQGTKLEIKRTVAAPSVFIFPPSDEQLKSGTASVVCLLNNFYPREAKVQWKVDNALQSGNSQESVTEQDSKDSTYSLSSTLTLSKADYEKHKVYACEVTHQGLSSPVTKSFNRGEC
notes: formula 11
EC50 [1]: 470 pM
Max [1]: 1.09
EC50 [2]: 350 pM
Max [2]: 1.63
EC50 [3]: 470 pM
EC50 [4]: 350 pM

B9: F11-4 (bispecific antibody)
heavy: not shown
light: B8 light with V2I, S33N, K50Q
notes: formula 11
EC50 [1]: 280 pM
Max [1]: 1.27
EC50 [2]: 390 pM
Max [2]: 1.66
EC50 [3]: 280 pM
EC50 [4]: 390 pM

B10: F11-5 (bispecific antibody)
heavy: not shown
light: B8 light
notes: formula 11
EC50 [1]: 410 pM
Max [1]: 1.12
EC50 [2]: 340 pM
Max [2]: 1.6
EC50 [3]: 420 pM
EC50 [4]: 340 pM

B11: F11-6 (bispecific antibody)
heavy: not shown
light: B8 light with S33Q
notes: formula 11
EC50 [1]: 320 pM
Max [1]: 1.35
EC50 [2]: 230 pM
Max [2]: 1.6
EC50 [3]: 320 pM
EC50 [4]: 230 pM

B12: F11-1 (bispecific antibody)
heavy: not shown
light: B8 light with V2I, S33N, K50Q
notes: formula 11, GPRC5D x CD3 (S107E scFv)
EC50 [1]: 360 pM
Max [1]: 1.31
EC50 [2]: 440 pM
Max [2]: 1.76
EC50 [3]: 360 pM
EC50 [4]: 440 pM

B13: F11-3 (bispecific antibody)
heavy: not shown
light: B8 light with S33Q
notes: formula 11
EC50 [1]: 270 pM
Max [1]: 1.45
EC50 [2]: 300 pM
Max [2]: 1.8
EC50 [3]: 270 pM
EC50 [4]: 300 pM

B14: PL-1 (bispecific antibody)
chain 1: not shown
chain 2: DIVLTQSPASLAVSPGQRATITCRASESVSIHGTHLMHWYQQKPGQPPKLLIYAASKLESGVPARFSGSGSGTDFTLTINPVEAEDTANYYCQQSFEDPLTFGQGTKLEIKGGGGSGIPPKIECLPIDISIDEGKVLTVASAFTGEPTPEVTWSTGGRKIHSQEQGRFHIENTDDLTTLIIKDVQKQDGGLYTLTLRNEFGSDSATVNIHIRSI
chain 3: not shown
chain 4: not shown
EC50 [5]: 1600 pM
EC50 [6]: 16500 pM

Further lines, results first:

EC50 [5]: 800 pM
EC50 [6]: 5300 pM
B15: PL-6 (bispecific antibody)
chain 1: not shown
chain 2: B14 chain 2 with V136C, L176S, I180T
chain 3: not shown
chain 4: not shown

EC50 [5]: 700 pM
EC50 [6]: 6500 pM
B16: PL-4 (bispecific antibody)
chain 1: not shown
chain 2: B14 chain 2 with A142C, L176S, I180T
chain 3: not shown
chain 4: not shown

EC50 [5]: 1400 pM
EC50 [6]: 14500 pM
B17: PL-8 (bispecific antibody)
chain 1: not shown
chain 2: B14 chain 2 with L176S, I180T
chain 3: not shown
chain 4: not shown

EC50 [5]: 700 pM
EC50 [6]: 6700 pM
B18: PL-5 (bispecific antibody)
chain 1: not shown
chain 2: B14 chain 2 with L176S, I180T
chain 3: not shown
chain 4: not shown

EC50 [5]: 500 pM
EC50 [6]: 7300 pM
B19: PL-7 (bispecific antibody)
chain 1: not shown
chain 2: B14 chain 2 with A142C, L176S, I180T
chain 3: not shown
chain 4: not shown

EC50 [5]: 600 pM
EC50 [6]: 7900 pM
B20: PL-3 (bispecific antibody)
chain 1: not shown
chain 2: B14 chain 2 with V136C, L176S, I180T
chain 3: not shown
chain 4: not shown

EC50 [5]: 600 pM
EC50 [6]: 5500 pM
B21: PL-9 (bispecific antibody)
chain 1: not shown
chain 2: B14 chain 2 with V136C, L176S, I180T
chain 3: not shown
chain 4: not shown

EC50 [5]: 500 pM
EC50 [6]: 8000 pM
B22: PL-2 (bispecific antibody)
chain 1: not shown
chain 2: B14 chain 2 with L176S, I180T
chain 3: not shown
chain 4: not shown
